# Reference: patent US20030223992A1 (SCHERING, published 2003)
# Where no end group is shown, it is not given here.
# T1: Human SP9155 receptor (human, UniProt Q96P65 1-431)
# T1 sequence: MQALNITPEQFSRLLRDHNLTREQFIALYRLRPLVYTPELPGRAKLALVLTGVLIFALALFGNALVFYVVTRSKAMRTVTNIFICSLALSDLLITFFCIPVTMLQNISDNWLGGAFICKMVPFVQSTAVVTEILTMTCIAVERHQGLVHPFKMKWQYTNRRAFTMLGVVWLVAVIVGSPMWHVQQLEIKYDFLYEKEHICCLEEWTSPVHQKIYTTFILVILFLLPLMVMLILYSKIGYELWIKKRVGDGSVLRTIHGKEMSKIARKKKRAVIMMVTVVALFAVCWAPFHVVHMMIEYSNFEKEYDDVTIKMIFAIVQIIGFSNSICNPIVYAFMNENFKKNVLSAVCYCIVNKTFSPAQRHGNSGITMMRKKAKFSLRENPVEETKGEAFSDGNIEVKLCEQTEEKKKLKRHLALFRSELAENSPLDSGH
# Biological target: T1, Human SP9155 receptor
# Assay: cell-based or functional assay
row,Binder,"EC50 (nM), Ca2+ flux (FLIPR) in HEK293 cells transfected with SP9155 receptor [nM]"
1,GGFSFRF-NH2 [Human P52],245
2,EHAGCRFRF-NH2 [Human P51],1560
3,KKGGFSFRF-NH2 [Human P517],235
4,KGGFSFRF-NH2 [Human P513],258
